Results taken from US20030113892A1.
No end group written: not given here.

How the values were obtained:
[1] = target: rat brain synaptosomes (voltage-gated sodium channel, receptor site 3) (rat); assay: cell-based or functional assay
[2] = target: rat brain synaptosomes (voltage-gated sodium channel, receptor site 3) (rat)

| Molecule | enhancement of [3H] BTX binding to rat brain synaptosomes [1] [fold] | EC50 [2] [nM] |
| --- | --- | --- |
| uctoxin (peptide) | 2 | 60 |
| birtoxin (also: three disulfide bridges, pairings not given here) ADVPGNYPLDKDGNTYKCFLLGGNEECLNVCKLHGVQYGYCYASKCWCEYLEDDKDVS | 4.32 | 5 |
